In patent US20220195015A1 (published 2022):
Where a chain is given by its changes, count along the chain named.

B1: C519 (antibody, V domains shown)
VH: QVQLQESGPGLVKPSETLSLTCAVSGGSISSYYWSWIRQPPGKGLEWIGYIDTSGSTNYNPSLKSRVTMSVDTSKNQFSLNVNSVTAADTAVYFCGVCAGDCYAASVFDYRGQGTLVTVSS
VL: DIQMTQSPSSLSASVGDRVTITCQASQDIIFYLNWYQQKPGKAPKLLIYDASNLKTGVPSRFSGSGSGTDFAFTISSLQPEDIATYYCQQYDNLPLTFGGGTKVEIK
B2: C068 (antibody, V domains shown)
VH: QVQLVESGGGVVQPGRSLRLSCVASGFSFSTYGMHWVRQAPGKGLEWVALIWSDGSNKYYGDAAEGRFTISRDNSNNTLYLQMNNLRAEDTALYYCARDHSSSSFVYYYYMDVWGKGTTVTVSS
VL: QSALTQPRSVSGSPGQSVTISCTGTSSDIGGYNYVSWYQQHPDKAPKFIIFDVSKRPSGVPDRFSGSKSGNTASLTISGLQAEDEADYYCCSYAGPYPYVFGTGTKVTVL
B3: C506 (antibody, V domains shown)
VH: EVQLVESGGGLVQPGGSLRLSCAASGFTFSSYDMHWVRQGTGKGLEWVSVIGTAGDAYYPGSVKGRFTISRENAKNSLYLQMNSLRAGDTAVYYCARMVYDSSGFKGYFDLWGRGTLVTVSS
VL: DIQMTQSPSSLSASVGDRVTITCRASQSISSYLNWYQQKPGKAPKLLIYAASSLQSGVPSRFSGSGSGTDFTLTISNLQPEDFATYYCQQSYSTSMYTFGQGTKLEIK
B4: C503 (antibody, V domains shown)
VH: QVQLQESGPGLVQPSGTLSLSCTVTGGSISSNNWWSWVRQSPVKGLEWIGEIYHNGNINYNPSLKSRVTMSIDKSKNHFSLKLSSVTAADTAVYYCARGDVLDWFDPWGQGTLVTVS
VL: QSALTQPASVSGSPGQSITFSCTGTSSDVGAYNYISWYQQHPGKAPKLMIYDVNNRPSGVSRRFSGSKSGNTASLTISGLQSEDEADYFCSSYAGNSTVRFGGGTKLTVL
B5: C066 (antibody, V domains shown)
VH: EVQLVESGGGLIQPGGSLRLSCAASGLLVSRNYMTWVRQAPGKGLEWVSVIYSGGSTFYADSVRGRFTISRDNSKNTLYLQMDSLRAEDTAVYYCARDVGDYYGMDVWGQGTTVTVSS
VL: DIQLTQSPAFLSASVGDRVTITCRASQGMSNYLAWYQQKPGKAPNLLIYTASTLQSGVPSRFSGSGSGTEFTLTISSLQPEDFATYYCQLLNSYPQLTFGGGTKVEIK
B6: C518 (antibody, V domains shown)
VH: EVQLVESGGGLIQPGGSLRLSCAASGITVSSNYMSWVRQAPGKGLEWVSVMYAGGSSFYADSVKGRFTISRDNSKNTLYLQMNSLRVEDTAVYYCARDLIALGVDVWGQGTTVTVSS
VL: B5 VL with A9S, M29I, N31S, N45K, T50A, Q96M, L97C, T98S, G101Q, V105L
B7: C089 (antibody, V domains shown)
VH: QVQLVESGGGVVQPGRSLRLSCAASGFTFRTYAMHWVRQAPGKGLEWVAVILSDGNNKYYADSVKGRFTISRDNSKNTLYLQMNSLRAEDTAIFYCAREQEANYYDISGYYHWGESLGYWGQGTLVTVSS
VL: DIQLTQSPSFLSASVGDRVTITCRASQGISSYLAWYQQKPGKAPKLLIYGASTLQSGVPSRFSGSGSGTEFTLTISSLQPEDFASYYCQKVNSHPPGLTFGGGTKVEIK
B8: C090 (antibody, V domains shown)
VH: B7 VH
VL: B7 VL with L46F, H94Y
B9: C504 (antibody, V domains shown)
VH: QVQLQESGPGLVKPSETLSLTCTVSGGSISSSYWNWIRQSPGKGLEWIGYIYYDGYTTFNPSLKSRVTISVDTSKNQFSLKLSSVTAADTAFYYCAAGLKGRSSSWYEYWGQGTLVTVSS
VL: DIQMTQSPSSLSASVGDRVTITCRASQSISSYLNWYQQKPGKAPKLLIYATSSLQSGVPSRFSGSGSGTDFTLTITSLQPEDFATYYCQQTYSSPHTFGQGTKLEIK
B10: C083 (antibody, V domains shown)
VH: EVQLVESGGGLVKPGGSLRLSCAASGFTFSSYSMNWVRQAPGKGLEWVSSISSSTSYIYYADSVKGRFTISRDNAKNSLYLQMNSLRAEDTAVYYCARERYGDNWGQGTLVTVSS
VL: QLVLTQSPSASASLGASVKLTCTLSSGHSSYAIAWHQQQPEKGPRYLMSLNSDGSHSKGDGIPDRFSGSSSGAERYLTISSLQSEDEADYYCQTWGPWVFGGGTKLTVL
B11: C067 (antibody, V domains shown)
VH: VQLVESGGGVVQPGRSLRLSCAASGFSFRIFGMNWVRQAPGKGLDWVAGISHDGSDKYFADSVKGRFTISRDNSKNTLYLQMNSLRADDTAVYYCARDMEVDYYDRSGHYHVFHAFDIWGQGTMVTVSS
VL: DIVMTQSPDSLAVSLGARATINCKSSQSILYSSDNKSSLAWYQQKPGHPPKLLIYWASTRESGVPDRFSGSESGTDFTLTISNLQGEDVAVYYCQQYYSIPRSFGQGTKLEIK
B12: C088 (antibody, V domains shown)
VH: QVQLVQSGAEAKKPGASVKVSCKTSGYTFTNYFMHWVRQAPGQGPEWMGIIDSSDGGASYAQKFQGRVTMTRDTSTSTVYMELRSLKFEDTAVYYCARASTSTTSWSDALSLGSWGQGTLVTVSS
VL: QSVLTQPPSVSGAPGQRVTISCTGSSSNIGGGSVVHWYQQLPGTAPKLLIYANSNRPSGVPDRFSGSKSGTSASLAIAGLQAEDEADYYCQSWDNGLSASGVVFGGGTKLTVL
B13: C505 (antibody, V domains shown)
VH: EVQLLESGGGLVQPGGSLRLSCADSGFSFSTYGMSWVRQAPGKGLEWVSTISGSGDNTYHADSVKGRFTISRDNSKNTLYLQMNSLRAEDTAVYYCAKNIAEMSTFDDYFYYYGMDVWGQGTTVTVSS
VL: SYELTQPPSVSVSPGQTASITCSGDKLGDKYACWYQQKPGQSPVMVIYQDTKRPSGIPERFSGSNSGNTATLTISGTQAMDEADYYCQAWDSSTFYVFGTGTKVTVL
B14: C502 (antibody, V domains shown)
VH: QVQLVQSGAEVKKPGSSVKVSCKASGDTFSSHAINWVRQAPGQGLEWMGRSIPMLGVTTSAQKFKGRVTITADHSTSTVFMDLSSLRSDDTAIYYCARGVVGATPGSFDLWGQGTMVTVSS
VL: EIVMTQSPATLSVSPGKRATLSCRASQSVRSNLAWYQQRPGQAPRLLIYDAATRATGIPTRFSGSGSGTEFTLTISSLQSEDFAVYYCQQYDNGLTFGGGTKVEIK
B15: C081 (antibody, V domains shown)
VH: EVQLVESGGGLVKPGGSLRLSCAASGFTFSSAWMSWVRQAPGKGLEWVGRIKTKTDGGTKDYAAPVKGRFTISRDDSKNTLYLQMNSLKTEDTAVYYCTTTNDYGDYSPAYWGQGTLVTVSS
VL: not shown
B16: C085 (antibody, V domains shown)
VH: QVQLQESGPGLVKPSETLSLTCTVSGDSMSSYFWTWIRQPPGKGLECIGYFYPSGSTNYNPSLKSRVTISIDTSKNQFSLKLSSVTAADTAVYYCARLKQQLVGFGWFDPWGQGTLVTVSS
VL: QSVLTQPPSVSGAPGQRVTISCTGSSSNIGADYDVHWYQQFPGTAPKVLIYANTNRPSGVPERFSGSKSGTSASLAITGLQAEDEADYYCQSYDHSLNWVFGGGTKLTVL
B17: C086 (antibody, V domains shown)
VH: B16 VH with M29I, S31T, T35A, K43R, Y50S, Y52F, N58Y, I71V, S83N, T115S
VL: B16 VL with S26I, D34E, Q39V, G66A, S96R, N98H
B18: C069 (antibody, V domains shown)
VH: QVQLVQSGAEVKKPGSSVNVSCKASGGTFSTYAIHWVRQAPGQGLEWMGGIIPLFHTANYAQKFQGRVTITADESTSTAYMELSSLRSEDTAMYYCAINTQWDLVPRWGRGTLVTVSS
VL: EIVLTQSPGTLSLAPGERATLSCRASQSVNSNYLAWYQQKPGQAPRLLIYGASSRATGIPDRFSGSGSGTDFTLTISRLEPEDFAVYYCQQYGFSLYSFGQGTKLEIK

Legend:
[1] = molecular target: SARS-CoV-2 spike protein receptor binding domain (RBD) (SARS-CoV-2, UniProt P0DTC2 319-539); test: ELISA on coated RBD protein
[2] = molecular target: SARS-CoV-2 spike protein receptor binding domain (RBD), wild type (SARS-CoV-2, UniProt P0DTC2 319-539); test: ELISA, RBD protein coated on plate, antibody titrated

Row | Binder | EC50 [1] [ng/mL] | EC50 [2] [ng/mL]
1 | B1 | 1.07 | –
2 | B2 | 5.46 | –
3 | B3 | – | 5.94
4 | B4 | – | 6.55
5 | B5 | 4.2 | –
6 | B6 | 1.13 | –
7 | B7 | 4.69 | –
8 | B8 | 6.22 | –
9 | B9 | – | 9.08
10 | B10 | 25.1 | –
11 | B11 | 6.98 | –
12 | B12 | 2.44 | –
13 | B13 | – | 16
14 | B14 | – | 6.48
15 | B15 | 12.5 | –
16 | B16 | 2.38 | –
17 | B17 | 3.01 | –
18 | B18 | 381 | –
